# Tests used:
# Format in all cases: biochemical
# FAK = FAK (Homo sapiens, UniProt Q05397); assay: TR-FRET kinase assay, FAK; details: Kinase Concentration 3 nM; 50 nM ULight-labeled substrate, 200 micromolar ATP, 2 hours
# Procedure: (§1) TR-FRET kinase assays are performed under standardized conditions: various individual kinases are incubated with 50 nM of kinase substrate BRB1 labeled with the TR-FRET acceptor dye ULight (PerkinElmer) and 200 micromolar ATP in 10 μL of kinase assay buffer (50 mM HEPES pH7.5, 10 mM MgCl2, 3 mM MnCl2, 1 mM EGTA, 2 mM DTT and 0.01% Tween-20) for 2 hours at room temperature. Reactions are stopped with EDTA, and anti-phospho-tyrosine antibodies (clone PT66) labeled with the TR-FRET europium chelate donor dye are added to a final concentration of 2 nM in a final volume of 20 μL. The TR-FRET signal emitted at 665 nm is read one hour after the addition of antibodies using a TR-FRET plate reader such as the Envision® Multilabel Plate reader (PerkinElmer). The emitted signal at 665 nm is proportional to the extent of peptide phosphorylation, Control reactions indicative of background are performed excluding ATP from the reaction.
# (§2) Assay conditions are identical to those used described for FIG. 1.
# FLT4 = FLT4 (Homo sapiens, UniProt P35916); assay: TR-FRET kinase assay, FLT4; details: Kinase Concentration 0.25 nM; 50 nM ULight-labeled substrate, 200 micromolar ATP, 2 hours
# Procedure: as §1, §2
# EphA8 = molecular target: T1, EphA8 (Homo sapiens, UniProt P29322); assay: TR-FRET kinase assay, EphA8; details: Kinase Concentration 0.25 nM; 50 nM ULight-labeled substrate, 200 micromolar ATP, 2 hours
# T1 sequence (P29322 28-1005): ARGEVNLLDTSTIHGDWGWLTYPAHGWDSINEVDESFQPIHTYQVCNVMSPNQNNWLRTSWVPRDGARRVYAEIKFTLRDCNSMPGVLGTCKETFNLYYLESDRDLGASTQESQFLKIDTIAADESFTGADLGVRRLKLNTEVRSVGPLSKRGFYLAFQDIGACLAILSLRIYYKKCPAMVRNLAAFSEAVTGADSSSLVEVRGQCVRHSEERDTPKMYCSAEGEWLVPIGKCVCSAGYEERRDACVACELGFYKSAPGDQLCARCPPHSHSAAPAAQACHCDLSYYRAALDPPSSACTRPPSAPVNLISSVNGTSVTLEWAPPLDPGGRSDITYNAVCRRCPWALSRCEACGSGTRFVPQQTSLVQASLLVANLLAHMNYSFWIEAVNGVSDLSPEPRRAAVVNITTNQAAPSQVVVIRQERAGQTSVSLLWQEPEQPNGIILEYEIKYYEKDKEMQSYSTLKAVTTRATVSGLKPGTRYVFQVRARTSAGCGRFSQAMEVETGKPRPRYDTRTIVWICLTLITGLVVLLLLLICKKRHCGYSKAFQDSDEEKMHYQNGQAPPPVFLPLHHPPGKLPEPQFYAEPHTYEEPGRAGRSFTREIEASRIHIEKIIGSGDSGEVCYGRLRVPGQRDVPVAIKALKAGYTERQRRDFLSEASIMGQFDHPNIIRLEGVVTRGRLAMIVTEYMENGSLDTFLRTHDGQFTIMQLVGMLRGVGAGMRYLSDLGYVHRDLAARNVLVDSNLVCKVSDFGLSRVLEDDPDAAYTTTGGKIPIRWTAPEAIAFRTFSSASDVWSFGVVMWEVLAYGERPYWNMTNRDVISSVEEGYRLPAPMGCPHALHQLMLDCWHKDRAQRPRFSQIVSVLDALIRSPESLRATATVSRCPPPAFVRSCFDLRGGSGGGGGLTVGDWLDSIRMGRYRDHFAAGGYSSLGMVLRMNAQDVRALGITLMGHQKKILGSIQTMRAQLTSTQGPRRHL
# Procedure: as §1, §2
# SRM = SRM (Homo sapiens, UniProt Q9H3Y6); assay: TR-FRET kinase assay, SRM; details: Kinase Concentration 0.5 nM; 50 nM ULight-labeled substrate, 200 micromolar ATP, 2 hours
# Procedure: as §1, §2
# DGFR [T790M] = DGFR [T790M] (Homo sapiens, UniProt P00533, T790M); assay: TR-FRET kinase assay, DGFR [T790M]; details: Kinase Concentration 0.5 nM; 50 nM ULight-labeled substrate, 200 micromolar ATP, 2 hours
# Procedure: as §1, §2
# FES = FES (Homo sapiens, UniProt P07332); assay: TR-FRET kinase assay, FES; details: Kinase Concentration 1 nM; 50 nM ULight-labeled substrate, 200 micromolar ATP, 2 hours
# Procedure: as §1, §2
# JAK3 = molecular target: T2, JAK3 (Homo sapiens, UniProt P52333); assay: TR-FRET kinase assay, JAK3; details: Kinase Concentration 0.5 nM; 50 nM ULight-labeled substrate, 200 micromolar ATP, 2 hours
# T2 sequence (P52333 1-1124): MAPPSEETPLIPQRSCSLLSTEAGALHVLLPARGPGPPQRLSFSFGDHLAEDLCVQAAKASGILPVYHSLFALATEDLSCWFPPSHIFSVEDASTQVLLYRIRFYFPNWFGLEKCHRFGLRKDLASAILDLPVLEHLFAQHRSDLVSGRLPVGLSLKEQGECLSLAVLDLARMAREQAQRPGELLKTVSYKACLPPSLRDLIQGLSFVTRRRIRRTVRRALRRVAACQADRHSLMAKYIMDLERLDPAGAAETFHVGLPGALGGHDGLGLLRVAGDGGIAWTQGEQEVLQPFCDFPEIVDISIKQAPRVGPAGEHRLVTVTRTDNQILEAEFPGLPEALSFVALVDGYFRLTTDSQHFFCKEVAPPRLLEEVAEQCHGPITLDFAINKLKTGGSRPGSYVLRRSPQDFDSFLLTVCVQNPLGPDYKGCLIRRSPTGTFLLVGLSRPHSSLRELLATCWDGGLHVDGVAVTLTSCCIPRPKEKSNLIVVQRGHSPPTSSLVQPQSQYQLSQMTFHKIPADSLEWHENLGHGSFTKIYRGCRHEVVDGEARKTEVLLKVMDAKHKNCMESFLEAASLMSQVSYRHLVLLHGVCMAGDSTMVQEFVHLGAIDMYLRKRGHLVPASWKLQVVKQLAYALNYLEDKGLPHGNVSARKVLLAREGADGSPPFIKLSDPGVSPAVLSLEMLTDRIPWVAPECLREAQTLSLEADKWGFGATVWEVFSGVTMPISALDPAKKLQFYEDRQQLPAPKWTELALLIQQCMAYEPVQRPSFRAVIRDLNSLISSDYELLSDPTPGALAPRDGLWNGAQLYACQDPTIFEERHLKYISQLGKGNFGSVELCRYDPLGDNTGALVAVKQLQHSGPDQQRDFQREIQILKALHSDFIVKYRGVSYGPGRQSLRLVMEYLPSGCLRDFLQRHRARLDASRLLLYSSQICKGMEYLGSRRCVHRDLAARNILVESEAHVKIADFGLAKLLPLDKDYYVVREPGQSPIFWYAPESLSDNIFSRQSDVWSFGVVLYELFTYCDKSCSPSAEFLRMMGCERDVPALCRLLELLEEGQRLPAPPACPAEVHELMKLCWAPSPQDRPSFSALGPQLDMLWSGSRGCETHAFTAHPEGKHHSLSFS
# Procedure: as §1, §2
# TRKC (NTRK3) = TRKC (NTRK3) (Homo sapiens, UniProt Q16288); assay: TR-FRET kinase assay, TRKC (NTRK3); details: Kinase Concentration 0.5 nM; 50 nM ULight-labeled substrate, 200 micromolar ATP, 2 hours
# Procedure: as §1, §2
# Chain of FAK (Q05397 whole entry, species assumed): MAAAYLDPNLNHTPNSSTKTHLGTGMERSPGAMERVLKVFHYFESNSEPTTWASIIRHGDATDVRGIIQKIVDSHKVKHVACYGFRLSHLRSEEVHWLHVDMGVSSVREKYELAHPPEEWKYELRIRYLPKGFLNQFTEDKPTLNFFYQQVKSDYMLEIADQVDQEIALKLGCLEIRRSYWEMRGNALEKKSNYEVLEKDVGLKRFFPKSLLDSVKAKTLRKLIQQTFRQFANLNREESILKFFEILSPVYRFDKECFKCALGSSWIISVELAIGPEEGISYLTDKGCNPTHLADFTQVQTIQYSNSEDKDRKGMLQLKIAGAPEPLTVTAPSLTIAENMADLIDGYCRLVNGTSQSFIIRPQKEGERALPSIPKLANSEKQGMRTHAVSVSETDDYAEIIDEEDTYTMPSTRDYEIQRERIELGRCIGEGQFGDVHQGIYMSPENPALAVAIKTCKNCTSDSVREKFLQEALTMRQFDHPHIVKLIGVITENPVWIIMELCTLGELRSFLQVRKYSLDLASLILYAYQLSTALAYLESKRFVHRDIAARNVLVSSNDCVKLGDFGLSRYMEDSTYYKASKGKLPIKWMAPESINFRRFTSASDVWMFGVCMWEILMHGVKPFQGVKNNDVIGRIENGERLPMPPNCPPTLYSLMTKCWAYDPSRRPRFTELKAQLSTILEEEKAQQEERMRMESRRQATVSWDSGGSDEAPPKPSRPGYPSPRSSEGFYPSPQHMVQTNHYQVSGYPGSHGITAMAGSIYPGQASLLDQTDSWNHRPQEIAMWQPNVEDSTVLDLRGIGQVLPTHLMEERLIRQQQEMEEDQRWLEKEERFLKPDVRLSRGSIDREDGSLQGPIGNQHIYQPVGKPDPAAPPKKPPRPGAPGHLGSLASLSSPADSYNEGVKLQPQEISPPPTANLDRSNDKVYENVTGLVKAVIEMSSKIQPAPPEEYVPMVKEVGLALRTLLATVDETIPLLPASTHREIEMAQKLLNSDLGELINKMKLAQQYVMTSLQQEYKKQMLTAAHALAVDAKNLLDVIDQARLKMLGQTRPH
# Chain of FLT4 (P35916 25-1363, species assumed): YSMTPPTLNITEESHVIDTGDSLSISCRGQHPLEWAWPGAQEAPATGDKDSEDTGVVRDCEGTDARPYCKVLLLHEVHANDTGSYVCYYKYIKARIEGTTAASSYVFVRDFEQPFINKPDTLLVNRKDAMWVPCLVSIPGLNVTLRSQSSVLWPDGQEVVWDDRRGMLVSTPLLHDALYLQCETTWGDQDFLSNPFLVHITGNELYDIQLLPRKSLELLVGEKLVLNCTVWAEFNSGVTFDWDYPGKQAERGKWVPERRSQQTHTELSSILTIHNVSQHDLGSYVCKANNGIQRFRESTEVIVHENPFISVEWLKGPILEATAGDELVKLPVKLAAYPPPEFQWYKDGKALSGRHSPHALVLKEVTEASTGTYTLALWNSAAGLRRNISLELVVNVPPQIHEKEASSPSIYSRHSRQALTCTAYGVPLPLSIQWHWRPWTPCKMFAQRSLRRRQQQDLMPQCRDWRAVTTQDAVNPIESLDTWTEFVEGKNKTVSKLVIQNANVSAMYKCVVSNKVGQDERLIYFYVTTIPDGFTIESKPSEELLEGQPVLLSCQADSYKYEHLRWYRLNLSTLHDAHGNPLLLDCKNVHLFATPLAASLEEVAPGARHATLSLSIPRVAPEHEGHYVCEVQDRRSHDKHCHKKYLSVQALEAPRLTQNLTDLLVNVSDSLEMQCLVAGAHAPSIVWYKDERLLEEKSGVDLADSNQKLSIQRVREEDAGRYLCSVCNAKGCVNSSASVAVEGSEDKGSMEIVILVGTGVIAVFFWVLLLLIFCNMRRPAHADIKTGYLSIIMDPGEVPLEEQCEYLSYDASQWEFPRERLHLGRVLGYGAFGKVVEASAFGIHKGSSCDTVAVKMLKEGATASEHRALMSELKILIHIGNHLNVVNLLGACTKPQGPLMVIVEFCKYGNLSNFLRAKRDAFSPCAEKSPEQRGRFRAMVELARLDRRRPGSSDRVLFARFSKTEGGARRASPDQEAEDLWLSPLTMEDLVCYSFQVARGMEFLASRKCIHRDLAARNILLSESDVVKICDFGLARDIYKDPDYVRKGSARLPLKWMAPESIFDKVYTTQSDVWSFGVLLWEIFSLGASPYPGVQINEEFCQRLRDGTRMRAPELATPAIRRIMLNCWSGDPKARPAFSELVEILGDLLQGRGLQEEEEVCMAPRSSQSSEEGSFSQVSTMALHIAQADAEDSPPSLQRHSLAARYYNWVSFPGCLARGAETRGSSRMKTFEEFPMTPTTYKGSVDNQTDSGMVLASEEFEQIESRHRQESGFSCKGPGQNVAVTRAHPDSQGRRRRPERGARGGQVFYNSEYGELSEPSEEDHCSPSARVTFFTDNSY
# Chain of SRM (Q9H3Y6 whole entry): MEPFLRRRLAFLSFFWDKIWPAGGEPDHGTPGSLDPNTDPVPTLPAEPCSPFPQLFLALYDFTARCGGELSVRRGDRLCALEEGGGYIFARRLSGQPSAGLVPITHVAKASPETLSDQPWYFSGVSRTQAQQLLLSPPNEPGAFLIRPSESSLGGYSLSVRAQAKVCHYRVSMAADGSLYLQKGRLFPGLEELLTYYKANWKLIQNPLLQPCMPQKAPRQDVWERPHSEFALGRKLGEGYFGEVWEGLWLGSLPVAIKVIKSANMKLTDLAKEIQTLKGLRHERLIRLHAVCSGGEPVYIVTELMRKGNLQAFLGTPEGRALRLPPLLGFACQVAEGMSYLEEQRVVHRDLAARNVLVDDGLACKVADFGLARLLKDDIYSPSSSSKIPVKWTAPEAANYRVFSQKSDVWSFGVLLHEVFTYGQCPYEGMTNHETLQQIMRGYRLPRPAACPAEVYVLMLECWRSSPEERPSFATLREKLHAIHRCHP
# Chain of FES (P07332 whole entry, species assumed): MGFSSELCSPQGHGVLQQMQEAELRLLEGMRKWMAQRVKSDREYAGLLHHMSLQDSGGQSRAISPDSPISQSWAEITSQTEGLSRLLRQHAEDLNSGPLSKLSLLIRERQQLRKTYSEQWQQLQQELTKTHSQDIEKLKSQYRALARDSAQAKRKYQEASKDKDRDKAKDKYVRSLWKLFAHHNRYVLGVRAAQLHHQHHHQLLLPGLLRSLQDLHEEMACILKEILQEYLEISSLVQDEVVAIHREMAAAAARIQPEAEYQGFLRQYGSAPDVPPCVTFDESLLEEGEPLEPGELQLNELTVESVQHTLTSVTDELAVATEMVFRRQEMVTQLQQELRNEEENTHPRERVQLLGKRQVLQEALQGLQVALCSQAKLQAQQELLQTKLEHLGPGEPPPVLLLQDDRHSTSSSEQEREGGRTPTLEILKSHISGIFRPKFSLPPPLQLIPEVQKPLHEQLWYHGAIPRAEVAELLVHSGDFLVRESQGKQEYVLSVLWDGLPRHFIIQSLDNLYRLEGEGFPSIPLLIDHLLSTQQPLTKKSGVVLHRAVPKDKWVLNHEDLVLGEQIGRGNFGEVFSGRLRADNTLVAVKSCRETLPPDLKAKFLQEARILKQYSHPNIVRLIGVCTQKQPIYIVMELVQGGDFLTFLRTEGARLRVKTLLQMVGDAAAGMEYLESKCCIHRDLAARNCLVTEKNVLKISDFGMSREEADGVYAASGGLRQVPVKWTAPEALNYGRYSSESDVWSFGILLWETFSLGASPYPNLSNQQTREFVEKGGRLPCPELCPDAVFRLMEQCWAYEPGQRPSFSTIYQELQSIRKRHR
sequence,measurement,setting,value
C AYE AYE AYE K EYA EYA EYA K AYA EYE R (CAYEAYEAYEKEYAEYAEYAKAYAEYER; tyrosine kinase substrate peptide) [BRB1],Signal to Noise ratio with BRB1 Peptide,FAK,1.7
same,Signal to Noise ratio with BRB1 Peptide,FLT4,20.0
same,Signal to Noise ratio with BRB1 Peptide,EphA8,32.3
same,Signal to Noise ratio with BRB1 Peptide,SRM,32.5
same,Signal to Noise ratio with BRB1 Peptide,DGFR [T790M],3.3
same,Signal to Noise ratio with BRB1 Peptide,FES,24.9
same,Signal to Noise ratio with BRB1 Peptide,JAK3,16.1
same,Signal to Noise ratio with BRB1 Peptide,TRKC (NTRK3),6.4

# Source: patent publication US8242083B2, “Kinase substrates” (PerkinElmer Health Sciences, Inc., priority 2008, dated 2012)
